Reference: publication PMC5740062, “CRTC1 mediates preferential transcription at neuronal activity-regulated CRE/TATA promoters” (Scientific Reports, 2017)

Target: T1, cAMP-responsive element-binding protein (CREB) (mouse (endogenous in primary cortical …, UniProt Q01147-1 1-341, phosphoserine at 133 (blotted as pCREB after FSK/KCl)))
T1 construct: Precipitated with an anti-CREB antibody and detected on blots as phosphorylated CREB (Ser133); also called pCREB; endogenous CREB; source: endogenous, mouse primary cortical neurons (12 DIV), formaldehyde-crosslinked, in lysate
T1 sequence (Q01147 other isoform, or with tags, fused parts or gaps): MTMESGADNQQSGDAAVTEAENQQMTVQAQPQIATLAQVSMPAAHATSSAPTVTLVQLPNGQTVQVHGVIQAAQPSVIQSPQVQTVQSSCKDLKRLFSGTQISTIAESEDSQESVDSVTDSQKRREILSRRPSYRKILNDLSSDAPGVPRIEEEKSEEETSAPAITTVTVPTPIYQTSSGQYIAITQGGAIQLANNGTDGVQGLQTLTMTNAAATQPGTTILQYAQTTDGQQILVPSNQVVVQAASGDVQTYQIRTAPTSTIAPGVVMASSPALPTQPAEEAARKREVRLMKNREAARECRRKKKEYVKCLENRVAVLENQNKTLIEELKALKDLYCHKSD
Assay: co-IP; endogenous proteins; cortical neurons (12 DIV) treated with vehicle or FSK/KCl, crosslinked with 1% formaldehyde, lysed by sonication (50 mM Tris-HCl pH 8, 1% Triton X-100, 100 mM NaCl, 1 mM MgCl2); 2 mg protein immunoprecipitated overnight at 4 °C with anti-CREB or anti-CRTC1, Dynabeads protein G; blots of CRTC1 and pCREB; percent normalised to the maximum immunoprecipitation with the specific antibody in …
Settings: partners not purified

percent of CRTC1 co-immunoprecipitated with anti-CREB (FSK/KCl), relative to its immunoprecipitation with anti-CRTC1: ~37%
B1: CREB-regulated transcription coactivator-1 (CRTC1) (natural protein, UniProt Q68ED7 1-630, looked up)
chain: MATSNNPRKFSEKIALHNQKQAEETAAFEEVMKDLSLTRAARLQLQKSQYLQLGPSRGQYYGGSLPNVNQIGSSSVDLAFQTPFQSSGLDTSRTTRHHGLVDRVYRERGRLGSPHRRPLSVDKHGRQADSCPYGTVYLSPPADTSWRRTNSDSALHQSTMTPSQAESFTGGSQDAHQKRVLLLTVPGMEDTGAETDKTLSKQSWDSKKAGSRPKSCEVPGINIFPSADQENTTALIPATHNTGGSLPDLTNIHFPSPLPTPLDPEEPPFPALTSSSSTGSLAHLGVGGAGQGMNTPSSSPQHRPAVVSPLSLSTEARRQQAQQVSPTLSPLSPITQAVAMDALSLEQQLPYAFFTQTGSQQPPPQPQPPPPPPPVSQQQPPPPQVSVGLPQGGPLLPSASLTRGPQLPPLSVTVPSTLPQSPTENPGQSPMGIDATSAPALQYRTSAGSPATQSPTSPVSNQGFSPGSSPQHTSTLGSVFGDAYYEQQMTARQANALSRQLEQFNMMENAISSSSLYNPGSTLNYSQAAMMGLSGSHGGLQDPQQLGYTGHGGIPNIILTVTGESPPSLSKELSSTLAGVSDVSFDSDHQFPLDELKIDPLTLDGLHMLNDPDMVLADPATEDTFRMDRL
notes: also called endogenous CRTC1; source: endogenous, mouse primary cortical neurons (12 DIV), formaldehyde-crosslinked, in lysate
